Consider two proteins from publication PMC10839789, “More indications for redox-sensitive cysteine residues of the Arabidopsis 5-aminolevulinate dehydratase” (Frontiers in Plant Science, 2023).

Residue numbers refer to the chain shown, from its start. Names may count otherwise.

Series [1] deals with the molecule itself. In words: non-reducing SDS-PAGE with immunoblot (disulfide-linked oligomers); ALAD oxidised with diamide, dialysed, then 1 uM ALAD incubated 30 min with diamide, DTT (0.1-10 mM) or 0.1 mM DTT with TRX-f1/TRX-m1 (6.7 uM) or BSA (2 uM); free Cys blocked with NEM; non-reducing 10% SDS-PAGE; anti-His blot. A general note: A western blot detects proteins with antibodies after separation by electrophoresis.

Series [2] deals with the molecule itself. Description: non-reducing SDS-PAGE with immunoblot (disulfide-linked oligomers); recombinant ALAD preincubated 15 min at RT with 1 mM diamide (oxidising) or untreated; non-reducing 12% SDS-PAGE; anti-His blot.

B1: recombinant 6xHis-ALAD (Arabidopsis thaliana 5-aminolevulinic acid dehydratase 1, mature, wild type) (enzyme, UniProt Q9SFH9 53-430, looked up)
chain: ASESGNGHAKKLGMSDAECEAAVAAGNVPEAPPVPPKPAAPVGTPIIKPLNLSRRPRRNRASPVTRAAFQETDISPANFVYPLFIHEGEEDTPIGAMPGCYRLGWRHGLVQEVAKARAVGVNSIVLFPKVPEALKNSTGDEAYNDNGLVPRTIRLLKDKYPDLIIYTDVALDPYSSDGHDGIVREDGVIMNDETVHQLCKQAVSQARAGADVVSPSDMMDGRVGAIRSALDAEGFQNVSIMSYTAKYASSFYGPFREALDSNPRFGDKKTYQMNPANYREALIEAREDEAEGADILLVKPGLPYLDIIRLLRDKSPLPIAAYQVSGEYSMIKAGGVLKMIDEEKVMMESLMCLRRAGADIILTYFALQAATCLCGEKR
notes: ALAD1 (HEMB1, AT1G69740), Arabidopsis thaliana, cloned without the transit peptide (aa 1-52, ChloroP); mature ALAD1 is Ala53 to Arg430 of the 430-residue precursor; pET28a(+); also called ALAD1; ALAD(WT); source: E. coli Rosetta (DE3), purified (Ni-NTA agarose); not shown: His6, N-terminal, kept
Consider B1, for which the binding result in series [1] was “binds”.

B2: recombinant 6xHis-ALAD(C424S/C426S) (enzyme, Arabidopsis thaliana, UniProt Q9SFH9 53-430, looked up)
chain: B1 chain with C372S, C374S
notes: ALAD1 (HEMB1, AT1G69740), Arabidopsis thaliana, mature form without the transit peptide (aa 1-52), Ala53 to Arg430; made by site-directed mutagenesis of pET28a(ALAD); also called ALAD(C424/C426); source: E. coli Rosetta (DE3), purified (Ni-NTA agarose); not shown: His6, N-terminal, kept
With B2, the binding result in series [2] is given as “binds”.
